This data set deals with 3AB wild type (poliovirus type 1 (Mahoney), UniProt P03300 1457-1565). The data set is described as follows: EMSA. (In EMSA bound probe runs differently from free probe, usually more slowly.)
Sequence of 3AB wild type (P03300 1457-1565): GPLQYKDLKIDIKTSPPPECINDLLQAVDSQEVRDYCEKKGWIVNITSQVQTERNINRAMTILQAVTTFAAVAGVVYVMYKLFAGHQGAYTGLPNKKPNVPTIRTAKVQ

Regarding GAGUGCACCAUAUGCCAUUCAGGCUACGCAACUGUUGGGA (ssRNA) [40-mer RNA], the binding result is “binds”.

The values are drawn from PMC3072266.
